According to patent US20260008864A1:

Key:
[1] = target: CD3 on cells (PBMC, primary patient samples); test: flow cytometry, PBMC treated with C-IgG, dot plot CD38-PE against CD3-V450; reference panel for the treated samples; unstained panel: CD3 0%
[2] = target: CD3 on cells (PBMC, primary patient samples); test: flow cytometry on a primary patient sample, control panel: CD3-V450 staining is kept (reference for the bionic panel)

CD3 (% of PBMC in the CD3-V450 positive, CD38-PE negative quadrant) [1]: 25% | % CD3-V450 stained cells (control panel) [2]: 25%
Substance: non-binding IgG antibody
